In patent US11426447B2, “Neuregulin for the treatment of tumors of the nervous system” (LEIBNIZ-INSTITUT FUR …, priority 2016, dated 2022):

Experiments:
[1] = Body weight and tolerability of systemically treated animals; assay type: in vivo, mice
Method: A, Schematic representation of the protocol used to assess the efficacy of rhNRG1 treatment on schwannoma growth after experimental sciatic nerve crush injury. B, Serum levels of rhNRG1 after single intraperitoneal injections of 10 μg rhNRG1 per kg body weight measured in pooled blood (n=4 animals; median). C, Body weight of animals receiving (genotype and treatment as indicated) was determined over 13 weeks.
Crush injury-induced schwannoma formation was provoked in 2-month-old mice. Subsequently, administration of rhNRG1 was performed both systemically (by intraperitoneal injection) and locally (by rhNRG1-containing absorbable collagen sponges (ACS)). Vehicle saline solution was given to control animals. In order to assess the bioavailability of intraperitoneally injected rhNRG1 (10 μg per kg body weight), rhNRG1 serum levels were evaluated. Strikingly, rhNRG1 levels reached a peak 2 days after injection (FIG. 1B). […] A significant decline in body weight at the chosen dosage was, however, not observed (FIG. 1C).

intact nerves = test: Morphometric analysis of nerve sections: myelin thickness of non-crushed, intact nerves; assay type: in vivo, wildtype mice; conditions: long-term treatment over 8 weeks, vs PBS control
Method: Analysis of axon calibre, myelination thickness and solidity factor was conducted on semi-thin and ultra-thin sections of the sciatic nerve removed from transcardially perfused mice. Mice were perfused with a solution containing 3% paraformaldehyde and 3% glutaraldehyde in 0.1 M phosphate buffer (pH 7.4). Sections were postfixed for 1 h and kept in fixative including 3% sucrose. Sections were obtained from the distal part of the sciatic nerve. Sectioning and staining were performed as described. Images of toluidine blue-stained semi-thin sections were taken using an Axioskop 2 MOT (Carl Zeiss, Germany) equipped with a 100× immersion oil objective and an Olympus XC50 digital camera (Olympus, Germany). Standardized settings for camera sensitivity, resolution (2,576×1,932 pixels) and brightness of illumination were used for all micrographs. Ultra-thin sections were analysed with an electron microscope (EM910, Carl Zeiss) equipped with an integrated TRS 1K digital camera (Carl Zeiss). Image analysis was conducted with ImageJ version 1.48u. RGB colour images obtained from semi-thin sections were split into single channels and the green channel was chosen for measurements. The image was contrasted using the auto function. Axon and myelin were circumscribed manually by the freehand selection tool. Based on the measured areas, the thicknesses of the axons and myelin sheaths were calculated. […]

[2] = system: Schwann cell differentiation markers in crushed sciatic nerves; test: Immunoblot of sciatic nerve lysates after 3 months of treatment; assay type: in vivo, Nf2flox;P0-Cre;Nefh-Cre mice
Method: Immunoblotting was performed as described in (Morrison et al., 2001). The following primary antibodies were used: phospho-c-Jun (Ser73; 1:1000; Cell Signalling; 8752), anti-Nrg1 (1:250; Santa Cruz; clone C-20), anti-Erk (1:500; Cell Signalling), anti-phospho-Erk (T202/Y204; 1:500; Cell Signalling), anti-ErbB2 (1:500; Cell Signalling), anti-GAPDH (1:1000; Santa Cruz; 6C5), anti-merlin (1:500; Santa Cruz; A19). Western blot results were quantified using Gel analysis software by ImageJ. Density values were normalized to actin and appropriate controls of transfection or wild-type tissue, respectively. In case of phospho-specific detection of proteins, their acquired densities were referred to signals derived from related pan-antibodies (e.g. phospho-Erk to Erk signals).
Sciatic nerve crush injury was performed on WT and Nf2flox;P0-Cre;Nefh-Cre mutant animals as described in Example 1. The Nf2flox;P0-Cre;Nefh-Cre mutant animals were intraperitoneally injected every day with 10 μg of rhNRG1 per kg body weight (KO rhNRG1). For a control a PBS solution was systemically administered to WT animals and Nf2flox;P0-Cre;Nefh-Cre mutant animals (WT vehicle and KO vehicle). Sciatic nerve lysates were taken from animals after 3 month of treatment upon which immunochemistry was performed as described in Example 1.

pre-existing schwannomas = test: rhNRG1 treatment of pre-existing schwannomas: maximum sciatic nerve diameter; assay type: in vivo, Nf2flox;P0-Cre;Nefh-Cre mutant mice; conditions: 3 months untreated, then 3 months systemic rhNRG1, vs vehicle
Source text: A, Schematic representation of the protocol used to assess the efficacy of rhNRG1 treatment on pre-existing schwannomas. B, Quantification of maximum sciatic nerve diameters 3 and 6 months after nerve crush injury. Nf2flox;P0-Cre;Nefh-Cre mutant mice received either saline injections (vehicle) or intraperitoneal administration of rhNRH1 (** P<0.01 for differences between vehicle and rhNRG1-treated animals; n=6 animals per genotype; mean±SEM).
Three months after crush injury the right sciatic nerve of all animals was exposed surgically in order to assess sciatic nerve diameter as indicator for tumour size. Documentation was performed by video-assisted microscopy for each animal. Selected frames from the video files (using VirtualDub 1.6.19 software) were used to determine sciatic nerve diameter using ImageJ.
Two cohorts of animals underwent crush injury-induced schwannoma induction at the right sciatic nerve as described above (FIG. 5A). […] Then knockout animals (Nf2flox;P0-Cre;Nefh-Cre mutant animals) received either systemic rhNRG1 treatment or vehicle control applications for three months (FIG. 5A). […] (FIG. 5B)

neurofibromas = test: Quantification of tumors in Nf1flox;Postn-Cre mice; assay type: in vivo; conditions: intraperitoneal rhNRG1 for three months, vs saline
Source text: PFA-fixed tissue blocks derived from rhNRG1 and control treated animals containing lower spinal cord, lumbar dorsal root ganglions (DRG) as well as distal nerve proportions were cut in 4 planes per animal. Photographs were subsequently scanned and analyzed using the NanoZoomer Digital Pathology Software. The total area occupied by peripheral nerve tissue and dorsal root ganglion (DRG) tissue in mm^2 was quantified separately. Likewise, neoplastic tissue regions were identified and quantified separately for peripheral nerves and DRG areas. All quantitative analyses of tumorlets in Nf2flox;Postn-Cre mice were performed in blinded manner.
Another closely related but not similar entity of Schwann cell tumors are neurofibromas. As opposed to schwannomas, Schwann cells represent the primary neoplastic cell component of neurofibromas (Stemmer-Rachamimov et al., 2004; Rodriguez et al., 2012), but also incorporate a mixture of non-neoplastic components, including axons, perineurial cells, fibroblasts and inflammatory cells. In order to test a possible effect of rhNRG1 treatment on these tumors, which are a typical manifestation of the hereditary disease Neurofibromatosis type 1 (NF1), 4-month-old mutant Nf1flox;Postn-Cre animals as well as wildtype littermates were either treated with saline control injections or intraperitoneal rhNRG1 administration for three months (FIG. 9A). […]

[3] = in vivo; cited from earlier work

B1: rhNRG1: EGF domain containing 7 kDa protein of recombinant human Neuregulin 1, purchased from Reprokine (#RKQ02297) (protein, listed as Homo sapiens)
chain: SHLVKCAEKEKTFCVNGGECFMVKDLSNPSRYLCKCPNEFTGDRCQNYVMASFYKHLGIEF
- tolerability ([1]; 10 μg/kg, Nf2flox;P0-Cre;Nefh-Cre animals): well tolerated
- significant decline in body weight ([1]; systemic treatment at chosen dosage (10 μg/kg ip every other day), weighed weekly over 13 weeks): not observed
- impact on the microarchitecture of intact nerves (myelin thickness, g-ratio) (intact nerves): no obvious impact
- 21.5-kDa MBP isoform expression (immunoblot) ([2]; KO rhNRG1): strong up-regulation
- myelin protein zero (MPZ) expression (immunoblot) ([2]; KO rhNRG1, 3 months of treatment, vs wildtype): reduced expression
- 17 kDa myelin basic protein (MBP) isoform expression (immunoblot) ([2]; KO rhNRG1 vs wildtype littermates): remarkable reduced expression
- c-Jun levels (marker for undifferentiated Schwann cells) ([2]; knockout animals, systemic rhNRG1 injections): reduced
- ErbB2 expression (immunoblot) ([2]; rhNRG1-treated knockout mice, high in vehicle-treated knockout): normal expression
- macrophage number in nerve tissue (Iba-1 immunoblot) ([2]; systemic rhNRG1 treatment): not influenced
- tumor size (maximum sciatic nerve diameter) (pre-existing schwannomas): markedly smaller
- neurofibromas from distal parts of the nervous system (tumor fraction) (neurofibromas): significant effect
- body weight [3]: decrease in body weight
